We go through two substances from patent US20020132974A1, “BETA SHEET FORMING PEPTIDES AND GELS MADE THEREOF” (priority 1995, published 2002).

Data set [1] in a line: response of peptide gels to chemical switches (pH, salt, surfactant, solvent). It is filed as physicochemical. From the text: As mentioned, the gels of the invention are susceptible to chemical triggers which result in changes in the properties of the gels so that they switch from, for example, a first fluid state to a gel state or vica versa.
Addition of salt causes the network to contract and phase separate as a more concentrated gel phase. Changing the polarity of the solvent, ie making it more polar (water) or non-polar ( chloroform), preserves the β-sheet structure, but the gel network is destabilised and precipitation of the peptide occurs. In strong hydrogen-bonding donor solvents (like hexafluoroisopropanol), the peptide adopts an α-helical conformation (FIG. 3b) and there is no gelation. Solvents containing arornatic groups cause destabilisation of β-tapes by 20-30% and disruption of the gels. This is believed to be due to competition between intermolecular peptide aromatic side-chain interactions and the aromatic groups of the solvent Acetylation at the N-terminus and amination at the C-temiinus of the 27-residue peptide results in a preference for the a-helical conformation and gels are not formed. It seems that favourable interactions between β-nanotapes and solvent are important for gel stabilisation. By appropriate peptide design, peptides can be produced which will form nanotapes and gels in a variety of solvents, including water. For example, peptides derived from the Drosophila Toll receptor protein, from the Alzheimer amyloid peptide and from desmin filaments and from the β-domain of the leu lysozyme (SER-1). Chemical switches also include changes in pH, for example, the hydrophilic peptide AcNH-Gln-Ala-Thr-Asn-Arg-Asn-Thr-AspGly-Ser-Thr-AspTyr-Gly-Ile-Leu-Gin-Ile-Asn-Ser-Arg-CONH2 (SER-1) forms a gel at neutral and acidic pH, whilst it switches to a neutonial fluid at pH higher than 11.

A short description of data set [2]: gel and β-tape formation of peptides in solvents. It is filed as physicochemical. The text has this:
Compatibility of the β-sheet surface and the solvent are also essential for gelation as opposed to peptide precipitation out of solution. For example, K24 forms β-tapes with both polar and apolar groups on their surfaces. Thus, they can form gels in solvents with intermediate polarity, corresponding to values of relative dielectric constants, εγ=εr=24-62.
In organic solvents such as ethanol, methanol and 2-chloroethanol we have discovered that the aforementioned peptide sequences self-assemble to provide elongated tapes approximately 8 nm wide and a single molecule in thickness.

With “NH2-Lys-Leu-Glu-Ala-Leu-Tyr-Ile-Leu-Met-Val-Leu-Cly-Phe-Phe-Gly-Phe-Phe-Thr-Leu-Gly-Ie-Met-Leu-Ser-Tyr-Ile-Arg-CO2H [K27]”, the “effect of added 1,1,1,3,3,3-hexafluoropropanol-2 on the gel” value in data set [1] (addition of 50% v 1,1,1,3,3,3-hexafluoropropanol-2) is listed as “destroys the gel”. Moreover, the “effect of added water on the gel” value in data set [1] (addition of 50% v water) is reported as “destroys the gel”. Further, the “effect of sodium dodecylsulfate (SDS) on the gel” value in data set [1] (molar ratio 1 K27-350 SDS) was “destroys the gel”.

On to “NH2-Lys-Leu-Glu-Ala-Leu-Tyr-Val-Leu-Gly-Phe-Phe-Gly-Phe-Phe-Thr-Leu-Gly-Be-Met-Leu-Ser-Tyr-Rle-Arg-CO2H [K24]”, for which, in data set [2] (polarity above or below dielectric constant 24-62, β-sheet structures poorly soluble, precipitate), the “gel formation in solvents of higher or lower polarity” value is “gel is not formed”. Moreover, the “relative dielectric constant of solvents in which gels are formed” value in data set [2] (solvents or solvent mixtures of intermediate polarity) is 24-62. In addition, the “effect of lithium chloride on the gel” value in data set [1] (molar ratio 1 peptide-7 lithium chloride) is “contracts”. The “drop of the fraction of β-sheet structure” value in data set [1] (solvents containing aromatic groups) is listed as 20-30%.
